Results published in patent publication US9625458B2, “Biosensor” (priority 2002, dated 2017).

Test: Fluorescence emission spectra without and with saturating ligand (wavelength shift, ΔIstd, ΔRmax)
Design: key to ΔIstd: intensity change at λstd normalized to average intensity; key to ΔRmax: ratio change of two emission band areas, unbound vs saturated
Conditions: unbound vs ligand-saturated; for ΔIstd: standard intensity change; for ΔRmax: standard ratiometric change
Procedure: Fluorimetry. All measurements were conducted with an SLM Aminco-Bowman series 2 fluorimeter, with sample stirring at 25° C. Fluorescence emission spectra were acquired with excitation and emission slit widths of 4 and 8 nm, respectively. Photomultiplier tube potential was maintained between 400 and 800 volts. Protein concentrations were in the range of 50 to 1000 nM. Fluorophore-specific excitation was at the following approximate wavelengths: tryptophan, 290 nm; acrylodan, 390 nm; fluorescein, 485 nm; pyrene, 340 nm; NBD and NBDE, 490 nm; JPW4039, 485 nm; JPW4042, 470 nm; JPW4045, 470 nm.
Assessment of fluorescent biosensor function. Fluorescence emission spectra of bPBP-fluorophore conjugates were recorded in the absence and presence of saturating ligand concentrations. Spectral changes were characterized by four parameters: wavelength shift (the difference between the wavelengths of emission maximum in the unbound and ligand-saturated states), direction of intensity change (increase or decrease in intensity at the wavelengths of maximum emission in the two states), standard intensity change (ΔIstd), and standard ratiometric change (ΔR). ΔIstd is defined as the normalized intensity change relative to the average intensity, determined at the wavelength mid-point between the two emission maxima:
[formula] where λstd=(λmax, unbound+λmax, saturated)/2 and I1, I2 are the fluorescence intensities at λstd of each spectrum respectively (FIG. 4A). ΔR is defined in terms of two emission bands, A1 ([λ1, λ2]) and A2 ([λ3, λ4]) (FIG. 4B):
[formula] where ^∘A1, […] the areas in the absence of ligand, and ^∞A1, ^∞A2 the areas in the presence of saturating ligand. A computer program was used to enumerate ΔR for all possible pairs of wavelength bands in the two spectra, to identify the optimal sensing condition, defined as the maximum value of ΔR. Adjustable parameters of the algorithm, and their values used for ΔRmax quantities reported here, are: step size (2 nm), step width (10 nm), minimum integration area limit (fraction of total: 0.1), and maximum integration area limit (fraction of total: 1).

Molecule	ΔIstd	ΔRmax
phosphate BP S39C JPW4039 (conjugate, UniProt P0AG82 26-346, looked up, variant S39C, JPW4039 dye conjugate) Phosphate-binding protein PstS: EASLTGAGATFPAPVYAKWADTYQKETGNKVNYQGIGSCGGVKQIIANTVDFGASDAPLSDEKLAQEGLFQFPTVIGGVVLAVNIPGLKSGELVLDGKTLGDIYLGKIKKWDDEAIAKLNPGLKLPSQNIAVVRRADGSGTSFVFTSYLAKVNEEWKNNVGTGSTVKWPIGLGGKGNDGIAAFVQRLPGAIGYVEYAYAKQNNLAYTKLISADGKPVSPTEENFANAAKGADWSKTFAQDLTNQKGEDAWPITSTTFILIHKDQKKPEQGTEVLKFFDWAYKTGAKQANDLDYASLPDSVVEQVRAAWKTNIKDSSGKPLY	0.36	3.15
phosphate BP S39C JPW4042 (conjugate, UniProt P0AG82 26-346, looked up, variant S39C, JPW4042 dye label) Phosphate-binding protein PstS: EASLTGAGATFPAPVYAKWADTYQKETGNKVNYQGIGSCGGVKQIIANTVDFGASDAPLSDEKLAQEGLFQFPTVIGGVVLAVNIPGLKSGELVLDGKTLGDIYLGKIKKWDDEAIAKLNPGLKLPSQNIAVVRRADGSGTSFVFTSYLAKVNEEWKNNVGTGSTVKWPIGLGGKGNDGIAAFVQRLPGAIGYVEYAYAKQNNLAYTKLISADGKPVSPTEENFANAAKGADWSKTFAQDLTNQKGEDAWPITSTTFILIHKDQKKPEQGTEVLKFFDWAYKTGAKQANDLDYASLPDSVVEQVRAAWKTNIKDSSGKPLY	0.01	0.15
phosphate BP S39C JPW4045 (conjugate, UniProt P0AG82 26-346, looked up, variant S39C, JPW4045 dye conjugate) Phosphate-binding protein PstS: EASLTGAGATFPAPVYAKWADTYQKETGNKVNYQGIGSCGGVKQIIANTVDFGASDAPLSDEKLAQEGLFQFPTVIGGVVLAVNIPGLKSGELVLDGKTLGDIYLGKIKKWDDEAIAKLNPGLKLPSQNIAVVRRADGSGTSFVFTSYLAKVNEEWKNNVGTGSTVKWPIGLGGKGNDGIAAFVQRLPGAIGYVEYAYAKQNNLAYTKLISADGKPVSPTEENFANAAKGADWSKTFAQDLTNQKGEDAWPITSTTFILIHKDQKKPEQGTEVLKFFDWAYKTGAKQANDLDYASLPDSVVEQVRAAWKTNIKDSSGKPLY	0.18	4.13
phosphate BP S39C Acrylodan (conjugate, UniProt P0AG82 26-346, looked up, variant S39C, acrylodan conjugate) Phosphate-binding protein PstS: EASLTGAGATFPAPVYAKWADTYQKETGNKVNYQGIGSCGGVKQIIANTVDFGASDAPLSDEKLAQEGLFQFPTVIGGVVLAVNIPGLKSGELVLDGKTLGDIYLGKIKKWDDEAIAKLNPGLKLPSQNIAVVRRADGSGTSFVFTSYLAKVNEEWKNNVGTGSTVKWPIGLGGKGNDGIAAFVQRLPGAIGYVEYAYAKQNNLAYTKLISADGKPVSPTEENFANAAKGADWSKTFAQDLTNQKGEDAWPITSTTFILIHKDQKKPEQGTEVLKFFDWAYKTGAKQANDLDYASLPDSVVEQVRAAWKTNIKDSSGKPLY	0.10	0.80
phosphate BP S39C Fluorescein (conjugate, UniProt P0AG82 26-346, looked up, variant S39C, fluorescein conjugate) Phosphate-binding protein PstS: EASLTGAGATFPAPVYAKWADTYQKETGNKVNYQGIGSCGGVKQIIANTVDFGASDAPLSDEKLAQEGLFQFPTVIGGVVLAVNIPGLKSGELVLDGKTLGDIYLGKIKKWDDEAIAKLNPGLKLPSQNIAVVRRADGSGTSFVFTSYLAKVNEEWKNNVGTGSTVKWPIGLGGKGNDGIAAFVQRLPGAIGYVEYAYAKQNNLAYTKLISADGKPVSPTEENFANAAKGADWSKTFAQDLTNQKGEDAWPITSTTFILIHKDQKKPEQGTEVLKFFDWAYKTGAKQANDLDYASLPDSVVEQVRAAWKTNIKDSSGKPLY	0.03	0.21
phosphate BP S39C NBD (conjugate, UniProt P0AG82 26-346, looked up, variant S39C, NBD dye conjugate) Phosphate-binding protein PstS: EASLTGAGATFPAPVYAKWADTYQKETGNKVNYQGIGSCGGVKQIIANTVDFGASDAPLSDEKLAQEGLFQFPTVIGGVVLAVNIPGLKSGELVLDGKTLGDIYLGKIKKWDDEAIAKLNPGLKLPSQNIAVVRRADGSGTSFVFTSYLAKVNEEWKNNVGTGSTVKWPIGLGGKGNDGIAAFVQRLPGAIGYVEYAYAKQNNLAYTKLISADGKPVSPTEENFANAAKGADWSKTFAQDLTNQKGEDAWPITSTTFILIHKDQKKPEQGTEVLKFFDWAYKTGAKQANDLDYASLPDSVVEQVRAAWKTNIKDSSGKPLY	0.18	0.57
ribose BP A234C JPW4039 (conjugate, UniProt P02925 26-296, looked up, variant A234C, JPW4039 dye conjugate) Ribose import binding protein …: KDTIALVVSTLNNPFFVSLKDGAQKEADKLGYNLVVLDSQNNPAKELANVQDLTVRGTKILLINPTDSDAVGNAVKMANQANIPVITLDRQATKGEVVSHIASDNVLGGKIAGDYIAKKAGEGAKVIELQGIAGTSAARERGEGFQQAVAAHKFNVLASQPADFDRIKGLNVMQNLLTAHPDVQAVFAQNDEMALGALRALQTAGKSDVMVVGFDGTPDGEKAVNDGKLAATICQLPDQIGAKGVETADKVLKGEKVQAKYPVDLKLVVKQ	0.37	1.29
ribose BP A234C JPW4042 (conjugate, UniProt P02925 26-296, looked up, variant A234C, JPW4042 dye conjugate) Ribose import binding protein …: KDTIALVVSTLNNPFFVSLKDGAQKEADKLGYNLVVLDSQNNPAKELANVQDLTVRGTKILLINPTDSDAVGNAVKMANQANIPVITLDRQATKGEVVSHIASDNVLGGKIAGDYIAKKAGEGAKVIELQGIAGTSAARERGEGFQQAVAAHKFNVLASQPADFDRIKGLNVMQNLLTAHPDVQAVFAQNDEMALGALRALQTAGKSDVMVVGFDGTPDGEKAVNDGKLAATICQLPDQIGAKGVETADKVLKGEKVQAKYPVDLKLVVKQ	0.06	0.99
ribose BP A234C Acrylodan (conjugate, UniProt P02925 26-296, looked up, variant A234C, acrylodan label) Ribose import binding protein …: KDTIALVVSTLNNPFFVSLKDGAQKEADKLGYNLVVLDSQNNPAKELANVQDLTVRGTKILLINPTDSDAVGNAVKMANQANIPVITLDRQATKGEVVSHIASDNVLGGKIAGDYIAKKAGEGAKVIELQGIAGTSAARERGEGFQQAVAAHKFNVLASQPADFDRIKGLNVMQNLLTAHPDVQAVFAQNDEMALGALRALQTAGKSDVMVVGFDGTPDGEKAVNDGKLAATICQLPDQIGAKGVETADKVLKGEKVQAKYPVDLKLVVKQ	0.01	1.18
ribose BP A234C NBD (conjugate, UniProt P02925 26-296, looked up, variant A234C, NBD conjugate) Ribose import binding protein …: KDTIALVVSTLNNPFFVSLKDGAQKEADKLGYNLVVLDSQNNPAKELANVQDLTVRGTKILLINPTDSDAVGNAVKMANQANIPVITLDRQATKGEVVSHIASDNVLGGKIAGDYIAKKAGEGAKVIELQGIAGTSAARERGEGFQQAVAAHKFNVLASQPADFDRIKGLNVMQNLLTAHPDVQAVFAQNDEMALGALRALQTAGKSDVMVVGFDGTPDGEKAVNDGKLAATICQLPDQIGAKGVETADKVLKGEKVQAKYPVDLKLVVKQ	0.28	1.63
ribose BP D165C JPW4039 (conjugate, UniProt P02925 26-296, looked up, variant D165C, JPW4039 dye conjugate) Ribose import binding protein …: KDTIALVVSTLNNPFFVSLKDGAQKEADKLGYNLVVLDSQNNPAKELANVQDLTVRGTKILLINPTDSDAVGNAVKMANQANIPVITLDRQATKGEVVSHIASDNVLGGKIAGDYIAKKAGEGAKVIELQGIAGTSAARERGEGFQQAVAAHKFNVLASQPADFCRIKGLNVMQNLLTAHPDVQAVFAQNDEMALGALRALQTAGKSDVMVVGFDGTPDGEKAVNDGKLAATIAQLPDQIGAKGVETADKVLKGEKVQAKYPVDLKLVVKQ	0.13	0.36
